Assay: soluble on expression in E. coli; label from the status in PepcDB or PDB records
With “MTEEILKQGVGIVETSLTFEPPFCESFERISIDNFPIFALGKEISKEDGIEAMKKYVTSRFWFTYRRDFSPIGGTGPSTDQGWGCMLRCAQMLLGEVLLRRHIGRHFEWDIEKTSEIYEKILQMFFDEKDALYSIHQIAQMGVTEGKEVSKWFGPNTAAQVMKKLTIFDDWSNIAVHVALDNILVKEDAITMATSYPSEDAVKLIMGKKGLQTTKRKNRKNLDFTVKYLKQIKFFKFFNLFQIFYENGLVDKNRLSLSPGNIIPEWRPLLLMIPLRLGLTTINPCYLSAIQEFFKIPQCVGIIGGRPNHALYFVGMSGSKLFYLDPHYCRPKTESTAKMYAEKDSTATTDDVGFSHLEELVPLPSQTADVYTKMDDSTYHCQMMLWIEYENVDPSLALAMFCETRDEFENLCETLQKTTLPASQPPMFEFLQRRPKYLPKFEPYTGVSMKIEMKEFDDIGAANVKIDDDFEVLDVHTEEEDADEDNDDDVANA” the “soluble on expression in E. coli” value was “not soluble”. With “MGSDKIHHHHHHMTDHVIAHAFSYRHASRRKPALVDLTLKISRGERVLLLGASGSGKSTLLAAIAGVLADEDGEHSGELQVSGTPGMVLQDPDSQVISSRVGDDVAFGCENMCVPRDQIWPRVTQALAQVGLDLPLDHPTSELSGGQKQRLALAGVIAMGADIVLLDEPTANLDPDGVREVVSNISRAVETTGATMIVVEHRVSTWLDHVDRIIALGPDSRVLADGPARDVIAKHGRELSELGIWVPENDPQLPAALTPTHSDTAIHARELAVGWNQPLGTYGFDIPAGASTVITGANGKGKSTLLLTLAGLLPAHSGRVEVAHNIARGLHTDPLRWKSKELSSRFGFVFQDPEHQFVAATVREEMRVGLHDHNHLARADLLLERLRLDHLAEANPFTLSGGQKRRLSVATILVNTPDVVFLDEPTFGQDRTTFIELVTLLRELTDAGTTVVSITHDELYRRCLGDKEIAL” the “soluble on expression in E. coli” value was “not soluble”. With “MDRRSQILTIAGHLFSQRGYHATSMRELARHLNLQGGSLYAHIQSKEELLLEVVRQAAERFQKVLEELPSGDPVTRMKALVKGHLRVIAEELPRATVFFHEWKHLSPPLLEEAKALRRRYEEGVQAVVEEGVRAGVFRVENVRLATLFVLSALNWTYQWYRPDGPLSLEALAEAYAELVLKALGVAASPEGERREEGGEDGEA” the “soluble on expression in E. coli” value was “soluble”. For “MGSDKIHHHHHHMLLPNTRLIAAEQLLSPVDAARNRRLADTALTTAKSAGASYCDVRVGRYLRQFVITREAQVENVVNAESSGVGVRVLADGAWGFAATNTLTSDGVATATRQAVAIAKANARLGGTPVQLAPVTPAGQVSWKTPIKKNAMEVPLQDKVALLMDVNAAALNAGATFVASRMFAINEQKYFASSDGSYIDQDVHRLWLPFTVTAVDKASGKFRTRDGLSSPMGMGYEYLDGAAGEKHRLPGGLIGYGRSYDAREDAIAAAKQAREKLTAPSVKAGKYDLVIDPSNLFLTIHESVGHPLELDRVLGYEANYAGTSFATLDKRDAGYRWGSDAVTFVADKTQPGSLGAVGYDDEGVKTKQWDLVKDGILVDYQCTRDQAHLLGKTASDGCSYADSWSNVQFQRMPNVSLAPGRTPLAVADMIKNVERGLYIHGRGSYSIDQQRYNAQFGGQLFYEIENGQVTRLVEDGAYQIRTPEFWNACSAVCDQRDFRLGGSFFDGKGQPSQVSAVSHGSSTARFDGINVINTARSLG”, the “soluble on expression in E. coli” value was “not soluble”. For “SMKINFLRNKHKIHVQGTDLPDPIATFQQLDQEYKINSRLLQNILDAGFQMPTPIQMQAIPVMLHGRELLASAPTGSGKTLAFSIPILMQLKQPANKGFRALIISPTRELASQIHRELIKISEGTGFRIHMIHKAAVAAKKFGPKSSKKFDILVTTPNRLIYLLKQDPPGIDLASVEWLVVDESDKLFEDGKTGFRDQLASIFLACTSHKVRRAMFSATFAYDVEQWCKLNLDNVISVSIGARNS”, the “soluble on expression in E. coli” value was “soluble”. In the case of “MVIATIQAEDHSQQSGTQQETTTDTGGGKNVGYIDAGDWLSYAGTPVNIPSSGSYLIEYRVASQNGGGSLTFEEAGGAPVHGTIAIPATGGWQTWTTIQHTVNLSAGSHQFGIKANAGGWNLNWIRINKTH”, the “soluble on expression in E. coli” value is reported as “soluble”. With “YEGEKSVVVPVSATYKELHKLMEKEFKGKEFSVVDYDDDETILLIAVQSDKLYGTYYQFDTRTKKFTLLYDLMPQLKEEDMAEMRPIKFKSRDGLTIHGFITLPKAALEGKKVPLIVNPHGGPQGIRDSWGFNPETQLFASRGYATLQVNFRISGGYGKEFLRAGFKQIGRKAMDDVEDGVRYAISQGWVDPDRIAIYGASHGGYATLMGLVKTPDLYACGVDYVGVSNIYTFFDSFPEYWKPFKEMVKEIWYDLDNPEEAAIAKEVSPFFQIDKINKPLFVVQGANDPRVNINESDQIVTALRARGFEVPYMVKYNEGHGFHREENSMELYRAMLGFFAKHLK” the “soluble on expression in E. coli” value was “not soluble”. For “ASSGIVKMVSPTSKIEPCIVSVTYGSMTLNGLWLDDKVYCPRHVICSSSNMNEPDYSALLCRVTLGDFTIMSGRMSLTVVSYQMQGCQLVLTVSLQNPYTPKYTFGNVKPGETFTVLAAYNGRPQGAFHVTMRSSYTIKGSFLCGSCGSVGYVLTGDSVKFVYMHQLELSTGCHTGTDFTGNFYGPYRDAQVVQLPVKDYVQTVNVIAWLYAAILNNCAWFVQNDVCSTEDFNVWAMANGFSQVKADLVLDALASMTGVSIETLLAAIKRLYMGFQGRQILGSCTFEDELAPSDVYQQLAGV”, the “soluble on expression in E. coli” value was “soluble”. With “MSQVMEVVGGKWRLNVLWVINKYQSIRFNQLKREVNGITTIMLTRSLDILITNELVEKVDFQTLPLHVKYQLSSKGKSLMPLLKQINQWGKLYLLEHHHHHH” the “soluble on expression in E. coli” value was “not soluble”. With “MTEPTVARPDIDPVLKMLLDTFPVTFTAADGVEVARARLRQLKTPPELLPELRIEERTVGYDGLTDIPVRVYWPPVVRDNLPVVVYYHGGGWSLGGLDTHDPVARAHAVGAQAIVVSVDYRLAPEHPYPAGIDDSWAALRWVGENAAELGGDPSRIAVAGDSAGGNISAVMAQLARDVGGPPLVFQLLWYPTTMADLSLPSFTENADAPILDRDVIDAFLAWYVPGLDISDHTMLPTTLAPGNADLSGLPPAFIGTAEHDPLRDDGACYAELLTAAGVSVELSNEPTMVHGYVNFALVVPAAAEATGRGLAALKRALHA” the “soluble on expression in E. coli” value was “soluble”. With “MSKDTKQEDNAPTPVTTTPMALNPKTVEKTMFVNKEVLPKMKKIDPEEPGHLPLNEKFMKRWLIEGLIGKGGYGEIYLALDVVRGEEVAIKVEPKKRRGKLAKRMILEQHVLAKMQGKPHVPMIYGSGHAEKYNFIIMQILSINVGDIKKSSPNKKLSQCSVGRIIHQVIAALQDLHETGYVHRDVKPANMCFGIFPHSRHTLILLDFGLVRRYKMESGEWREPRLRAGFRGTTRYVSIRVHRRCEQSPYDDLVSVMYTAYELLAGELPWKHLEKSEEVVQLKEVMTENGINPELFQGDKSVLIDFFKQVSEMDPMKEPCYEKLIECIKVLYAPKVLTDPYEWEESSKGQDEVSEENTNSK” the “soluble on expression in E. coli” value was “soluble”. With “GMRVDKHEVRVGELAAGQPLSLPVYRFKGKGAGPSVYIQANVHGAEVQGNAVIYQLMKLLEHYELLGDISLVPLANPLGINQKSGEFTLGRFDPITGVNWNREYLDHGFNIEVWYQEHSHLDDDTLITAFRATLVEECARRLNNPWGVTTGHRLAVTLQSMAHRADIVLDLHTGPKSCKHLYCPEYERSAAQYFSIPYTLLIPNSFGGAMDEAAFVPWWTLAEVASSHGRELGVRVSALTLELGSQERIDLDDALEDAEGILAYLSHRGVIAETVLPKPMKRYGCFLKNYRKFHAPKAGMVEYLGKVGVPMKATDPLVNLLRLDLYGTGEELTVLRLPEDGVPILHFASASVHQGTELYKVMTKVFEL” the “soluble on expression in E. coli” value was “soluble”. In the case of “MDPGPWNECVPVRMPDDPQIHMVSNTRQAVELLTKRWPVSHGQAYQAAIDICMAVLERESPAYVARVAFVAAAKEAQVNIVS”, the “soluble on expression in E. coli” value is reported as “not soluble”. With “MFKTIDTNQKDVKLTVFSSDEKSFMVTATLVEKAGHAFLINSKFTQSDSKEIVEYLKKNNLSLDKIFIIHGDPDYYFGLESIKAVYPEAIAYATESTVEHIVHSVLGKLKVWKDALGENAPSNVVLPQVFKEKAIDFQGLTFELVGLEHYRTSLFNKELKVLIGGIDVFNEIHVFLADTSSKAAMEAWIENLKVLQALHADIIVPSHGSIEKSLNNQALTATMDYLRTAVQASEESGTSKDFVAKLEAAYPDYANKGVLELSAKVVTKEMPWGLEHHHHHH” the “soluble on expression in E. coli” value was “soluble”. With “MGSSHHHHHHSSGRENLYFQGMPIITFLPSGKRAEVDEGKTILSAAQEIGEGIRSLCGGKGSCGKCLVVVRKGDVEILSEEAHEKFVREKGYYLACQTAVKGDVEVFIPPESRLERQQILKDFFISSKEFNPVVKVEFCSDAFLPEVLSQKGLRLACSTDVEEGDFGLVVRGKEVIDVLPDEKAFGLAVDVGTTTIVAALVDLKDGKVVNVASDYNGQIIYGEEVLSRVEFARSRKDGVEVLQRAVVESINKLIDKLLEGYATPDRIYDVVAAGNTIMTHFLVGKDVEYLFSSPDVKVEREGFVVNASEIGLKVNSNAELFCLPPVGRFVGGDIVGDILASRIVDSATISLMVDLGTNGEIVVGSEGWAMATSVASGPAFEGYEIKHGSRAVEGAIDHVEIEGEEVRYTVIGNGKPRSICGSGLIDLMAEMFKNGILDATGAMNKKHPRVRRGEDGYEFVVVEAEKSATAKDIVFTEKDVETLLKSKAAVCAGIAVLIKKAGLGLEDIDEFYIAGAFGYYINFDNAVTIGLFPELKAEVKQIGNGSLAGAYLALVSERKRKLAETIANAFAYFDLSTDADFVEEYRAALSLPGRPELFPETYAKYV” the “soluble on expression in E. coli” value was “soluble”. In the case of “MSLKAIAKLRDHCIVCGYGRIGSVVAKELMEEGVALVVIENDPAMIEALETEGILHLAGDATNDELLQAAGIERARALVAALSLDSANVYVVLSAHQINPSMTIVARASEPSHIGKLKLAGADRVFLPHHLGGLRMAQSILRPTVTSFIELAHTRSDLSIQMEELEIGDDSVLVGKTLIESGIRPQYNLIIIGVKRPDGTMHFNPESTYTLQARDTLIAVGFPENFKQFQEILEGHHHHHH”, the “soluble on expression in E. coli” value is reported as “soluble”. In the case of “MSLTTKDHSLATESPTLQQLGEFAVIDRLVRGRRQPATVLLGPGDDAALVSAGDGRTVVSTDMLVQDSHFRLDWSTPQDVGRKAIAQNAADIEAMGARATAFVVGFGAPAETPAAQASALVDGMWEEAGRIGAGIVGGDLVSCRQWVVSVTAIGDLDGRAPVLRSGAKAGSVLAVVGELGRSAAGYALWCNGIEDFAELRRRHLVPQPPYGHGAAAAAVGAQAMIDVSDGLLADLRHIAEASGVRIDLSAAALAADRDALTAAATALGTDPWPWVLSGGEDHALVACFVGPVPAGWRTIGRVLDGPARVLVDGEEWTGYAGWQSFGEPDNQGSLGEGHHHHHH”, the “soluble on expression in E. coli” value is reported as “soluble”. With “MTLPKIGKPATRALNSQGIYTLEAVSQYTKSSLMEMHGVGPKAISILEQALFQHQLHFKTEVQSSLPFKLTGDVSCNHAPKRQQMIDFIVATAALDIELLRSLVTTEFIWSVPGHFDIYGPQILIQELSNYYNQVASLNIHSNITHGCLGSMHGIEILKTGKEIHFAHFFEFENHKKDAKLSKVTSYIVVA” the “soluble on expression in E. coli” value was “not soluble”. With “MKFDNKAPIYIQIMDKIKIDIINGTLKPGDKLPSVREMAVKFKVNPNTLQRVYQELERENITYTQRGTGSFVREDSDMIINLKKEMASEVIENFIENIKEFGFGNKDILKIVEDKLNEEEK” the “soluble on expression in E. coli” value was “soluble”. With “MESRYVLTGRYDSAPATDGSGTALGWTVAWKNNYRNAHSATTWSGQYVGGAEARINTQWLLTSGTTEANAWKSTLVGHDTFTKVKPSAASGGGSAEAGITGTWYNQLGSTFIVTAGADGALTGTYESA” the “soluble on expression in E. coli” value was “soluble”.

— the DeepSol protein solubility set
